Reference: patent publication US20250382602
Substitutions are numbered along the chain they refer to.

Legend:
[1] = target: T1, Dda 1993 K177Q K177Q (Enterobacteria phage T4) (UniProt P32270); conditions: nanopore translocation; background mutations not given
T1 sequence: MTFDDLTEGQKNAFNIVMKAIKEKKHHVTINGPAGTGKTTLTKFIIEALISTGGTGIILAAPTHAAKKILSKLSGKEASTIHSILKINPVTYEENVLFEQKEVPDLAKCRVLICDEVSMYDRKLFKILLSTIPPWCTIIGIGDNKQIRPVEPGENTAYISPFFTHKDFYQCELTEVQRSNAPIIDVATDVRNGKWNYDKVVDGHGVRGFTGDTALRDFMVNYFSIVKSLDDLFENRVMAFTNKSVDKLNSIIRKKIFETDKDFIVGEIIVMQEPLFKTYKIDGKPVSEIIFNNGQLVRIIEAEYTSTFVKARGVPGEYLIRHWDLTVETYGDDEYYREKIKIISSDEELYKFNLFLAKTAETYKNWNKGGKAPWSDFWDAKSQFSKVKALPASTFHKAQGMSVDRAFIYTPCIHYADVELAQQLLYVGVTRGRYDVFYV

[2] = target: T2, Dda 1993 K177I K177I (Enterobacteria phage T4) (UniProt P32270); conditions: nanopore translocation; background mutations not given
T2 sequence: T1 sequence with Q177I

[3] = target: T3, Dda 1993 K177D K177D (Enterobacteria phage T4) (UniProt P32270); conditions: nanopore translocation; control is an unspecified Dda variant, background mutations not given
T3 sequence: T1 sequence with Q177D

[4] = target: T4, Dda 1993 K177M K177M (Enterobacteria phage T4) (UniProt P32270); conditions: nanopore translocation; background mutations not given
T4 sequence: T1 sequence with Q177M

[5] = target: T5, Dda 1993 K177R K177R (Enterobacteria phage T4) (UniProt P32270); conditions: nanopore translocation; background mutations not given
T5 sequence: T1 sequence with Q177R

[6] = target: T6, Dda 1993 K177Y K177Y (Enterobacteria phage T4) (UniProt P32270); conditions: nanopore translocation; background mutations not given
T6 sequence: T1 sequence with Q177Y

barcoded 3.6 kb DNA analyte ligated to sequencing Y adaptor
activity (bps speed delta vs control) [1]: 59.7 | activity (bps speed delta vs control) [2]: 43 | activity (bps speed delta vs control) [3]: 3.07 | activity (bps speed delta vs control) [4]: 48.3 | activity (bps speed delta vs control) [5]: 21.7 | activity (bps speed delta vs control) [6]: -43.9
